{"source": "patent US7038020", "about": "(ZLB BIOPLASMA, dated 2006)", "key": {"[1]": {"target": "T1, Rhesus negative rbc, phenotype ccddee (Rhesus c and e antigens, no D) (human, UniProt P18577 2-417)", "T1 construct": "whole, on cells; the thing tested is the whole red cell; also called rr", "T1 sequence (looked up)": "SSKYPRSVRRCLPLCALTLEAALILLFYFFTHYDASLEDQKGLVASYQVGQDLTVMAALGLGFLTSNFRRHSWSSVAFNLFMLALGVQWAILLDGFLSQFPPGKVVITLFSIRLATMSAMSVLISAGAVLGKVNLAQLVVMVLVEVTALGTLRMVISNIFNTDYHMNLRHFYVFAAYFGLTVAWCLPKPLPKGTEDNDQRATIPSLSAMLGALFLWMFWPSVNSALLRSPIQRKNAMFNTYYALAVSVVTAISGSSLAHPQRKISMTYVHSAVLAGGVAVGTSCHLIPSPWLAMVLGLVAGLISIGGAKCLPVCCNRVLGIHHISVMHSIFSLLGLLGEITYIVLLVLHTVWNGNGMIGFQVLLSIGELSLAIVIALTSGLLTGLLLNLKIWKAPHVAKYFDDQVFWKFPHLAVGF", "assay": "indirect haemagglutination, Fab fragment, rbc rr"}, "Rhesus D antigen [2]": {"target": "T2, Rhesus D antigen (human, UniProt Q02161 2-417)", "T2 construct": "whole, on cells; R1R1 cells also carry C and e; also called RhD; on rbc R1R1 (CDe/CDe, CCDDee)", "T2 sequence (looked up)": "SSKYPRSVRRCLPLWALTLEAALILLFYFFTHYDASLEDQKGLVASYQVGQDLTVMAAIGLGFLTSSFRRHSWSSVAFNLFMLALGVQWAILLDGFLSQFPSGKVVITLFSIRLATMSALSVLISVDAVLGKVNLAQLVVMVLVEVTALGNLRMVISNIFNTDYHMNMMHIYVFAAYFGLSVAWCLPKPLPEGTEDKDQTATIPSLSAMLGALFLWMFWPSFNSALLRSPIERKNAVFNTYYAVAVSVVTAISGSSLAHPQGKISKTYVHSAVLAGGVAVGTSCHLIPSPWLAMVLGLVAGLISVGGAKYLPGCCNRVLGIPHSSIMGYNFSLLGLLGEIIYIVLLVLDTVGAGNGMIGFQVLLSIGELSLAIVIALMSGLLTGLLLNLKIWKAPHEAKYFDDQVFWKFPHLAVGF", "assay": "indirect haemagglutination, Fab fragment, rbc R1R1"}, "Rhesus D antigen [3]": {"target": "T2, Rhesus D antigen", "assay": "indirect haemagglutination, rbc CCDDee"}, "[4]": {"target": "T1, Rhesus negative rbc, phenotype ccddee …", "assay": "indirect haemagglutination, rbc ccddee"}, "Rhesus D antigen [5]": {"target": "T2, Rhesus D antigen", "assay": "haemagglutination, rbc"}}}
{"binder": "Fab clone LD2-14 (Fab, V domains shown, human soluble Fab from pComb3 in E. coli) VH: QVKLLESGGGVVQPGGSLRVACVASGFTFRNFGMHWVRQAPGKGLEWVAFIWFDASNKGYGDSVKGRFTVSRDNSKNTLYLQMNGLRAEDTAVYYCAREKAVRGISRYNYYMDVWGKGTTVTVSS VL: VMTQSPSSLSASVGDRVTITCRASQSIINNLNWYQQKPGKAPELLIYAASSLQSGVPSRFRGSGSGRDFTLTVTSLQPEDFATYYCQQSYSTLWTFGQGTKVEIK", "values": [{"measurement": "binding result", "setting": "[1]", "result": "no binding"}, {"measurement": "binding result", "setting": "Rhesus D antigen [2]", "result": "binds"}]}
{"binder": "Fab clone LD1/2-6-3 (Fab, V domains shown) VH: QVKLLESGGGVVQPGGSLRVACVASGFTFRNFGMHWVRQAPGKGLEWVAFIWFDASNKGYGDSVKGRFTVSRDNSKNTLYLQMNGLRAEDTAVYYCAREKAVRGISRYNYYMDVWGKGTTVTVSS VL: VMTQSPSSLSASVGDRVTITCRASQSIIRYLNWYQHKPGKAPKLLIHTASSLQSGVPSRFSGSVSGTDFTLTISSLQPEDFATYYCQQSYTTPYTFGQGTKLQIK", "values": [{"measurement": "binding result", "setting": "Rhesus D antigen [3]", "result": "binds"}, {"measurement": "binding result", "setting": "[4]", "result": "no binding"}]}
{"binder": "Fab clone LD1/2-6-33 (Fab, V domains shown) VH: QVKLLESGGGVVQPGGSLRVACVASGFTFRNFGMHWVRQAPGKGLEWVAFIWFDASNKGYGDSVKGRFTVSRDNSKNTLYLQMNGLRAEDTAVYYCAREKAVRGISRYNYYMDVWGKGTTVTVSS VL: VMTQSPSFLSASVGDRVTITCRASQSIIRYLNWYQHKPGKAPKLLIHAASSLQSGVPSRFSGSVSGTDFTLTISSLQPEDFATYYCQQSYTTPYTFGQGTKLQIK", "values": [{"measurement": "binding result", "setting": "Rhesus D antigen [3]", "result": "binds"}, {"measurement": "binding result", "setting": "[4]", "result": "no binding"}]}
{"binder": "Fab clone LD1-117 (Fab, V domains shown, human soluble Fab from pComb3 in E. coli) VH: QVKLLESGGGVVQPGKSLRLSCAASGFSFNSHGMHWVRQAPGKGLEWVAFIWFDGSNKYYADSVKGRFTITRDNSKNTLYLQMNSLRAEDTAVYYCARETSVRLGYSRYNYYMDVWGKGTTVTISS VL: VMTQSPSSLSASVGDRVTITCRASQSIRSHLNWYQQKPGKAPKLLIYAASSLQGGVPSRFSGSGSGTDFTLTISSLQPEDFATYYCQQSYRAPQWTFGQGTKVEIK", "values": [{"measurement": "binding result", "setting": "Rhesus D antigen [5]", "result": "binds"}]}
{"binder": "Fab clone LD2-17 (Fab, V domains shown, human soluble Fab from pComb3 in E. coli) VH: QVKLLESGGGVVQPGGSLRLSCVASGFTFRSYGMHWVRQAPGKGLEWVAFIWFDGSNKGYVDSVKGRFTISRDNSKNTLYLQMKSLRAEDTAVYYCAREKALRGISRYNYYLDVWGKGTTVTVSS VL: VMTQSPFSLSASVGDRVTITCRASQNIRSFLSWYQQKPGTAPKLLIYAASRLQSGVPSRFSGSGSGTDFTLTISTLQPEDFATYYCQQSYSAPWTFGQGTKLEIK", "values": [{"measurement": "binding result", "setting": "Rhesus D antigen [5]", "result": "binds"}]}
{"binder": "Fab clone LD2-20 (Fab, V domains shown, human soluble Fab from pComb3 in E. coli) VH: QVKLLESGGGVVQPGGSLRLSCVASGFTSRSYGMHWVRQAPGKGLEWVAFIWFDGSNKGYVDSVKGRFTISRDNSKNTLYLQMKSLRAEDTAVYYCAREKALRGISRYNYYLDVWGKGTTVTVSS VL: not shown", "values": [{"measurement": "binding result", "setting": "Rhesus D antigen [5]", "result": "binds"}]}
{"binder": "Fab clone LD2-5 (Fab, V domains shown, human soluble Fab from pComb3 in E. coli) VH: QVKLLESGGGLVQPGGSLRLSCVASGFTFRSYGMHWVRQAPGKGLEWVAFIWFDGSNKGYVDSVKGRFTISRDNSKNMLYLQMNSLRAEDTAVYYCAREKALRGISRYNYYLDVWGKGATVTVSS VL: VMTQSPSSLSASIGDRVTITCRASQSVTRSLNWYQQKPGKAPRLLIFAASTLQSGVPSRFSGSGSGTDFTLTISSLQPEDFGTYYCQQNYRTPQWTFGQGTKVEIK", "values": [{"measurement": "binding result", "setting": "Rhesus D antigen [5]", "result": "binds"}]}
{"binder": "Fab clone LD2-11 (Fab, V domains shown, human soluble Fab from pComb3 in E. coli) VH: QVKLLESGGGVVQPGGSLRLSCEASGFTLRSSGMHWVRQAPGKGLEWVALIWFDGSIRSYAESVKGRFTISRDTSKNTLYLQMRSLSADDTAVYYCARDKAVRGISRYNYYMDVWGKGTTVTVSS VL: VLTQSPSSLSASIRDRVTITCRASQNIGSYLNWYQHKPGTAPKLLIYAVSALQSGVPSRFSGSRSGTDFTLTISSLQPEDFATYYCQQSYSPPYTFGQGTNLQIK", "values": [{"measurement": "binding result", "setting": "Rhesus D antigen [5]", "result": "binds"}]}
{"binder": "Fab clone LD1-52 (Fab, V domains shown, human soluble Fab from pComb3 in E. coli) VH: QVKLLESGGGVVQPGGSLRLSCEASGFALRSSGMHWVRQAPGKGLEWVALIWFDGSIRSYAESVKGRFTISRDTSKNTLYLQMRSLSADDTAVYYCARDKAVRGISRYNYYMDVWGKGTTVTVSS VL: VMTQSPSSLSASVGDRVTITCRASQNIIRYLNWYQQKPGKAPRLLIYGASTLQSGVPSRFSGSGSGTDFTLTISSLQPEDFATYYCQQSYRTPPFTFGPGTKVEIK", "values": [{"measurement": "binding result", "setting": "Rhesus D antigen [5]", "result": "binds"}]}
{"binder": "Fab clone LD2-4 (Fab, V domains shown, human soluble Fab from pComb3 in E. coli) VH: QVKLLESGGGVVQPGGSLRLSCEASGFTLRSSGMHWVRQAPGKGLEWVALIWFDGSIRSYAESVKGRFTISRDTSKNTLYLQMRSLSADDTAVYYCARDKAVRGISRYNYYMDVWGKGTTVTVSS VL: VMTQSPSSLSASVGDRVTITCRTSQTISRNLNWYQQKPGKAPKLLIYATSSLQSGVPSRFSGSGSGTDFTLTINSLQPEDFATYYCQQSYTTPSFGQGTKVEIK", "values": [{"measurement": "binding result", "setting": "Rhesus D antigen [5]", "result": "binds"}]}
{"binder": "Fab clone LD1-84 (Fab, V domains shown, human soluble Fab from pComb3 in E. coli) VH: QVKLLESGGGVVQPGGSLRLSCEASGFTLRSSGMHWVRQAPGKGLEWVALIWFDGSIRSYAESVKGRFTISRDTSKNTLYLQMRSLSADDTAVYYCARDKAVRGISRYNYYMDVWGKGTTVTVSS VL: VMTQSPSSLSASIGDRVTITCRASQSIIRYLNWYQHKPGKAPKLLIFAASNLQTGVPSRFSGSGSGTDFTLTISDLQPEDFATYYCQQSYSRPFTFGRGTSLDIK", "values": [{"measurement": "binding result", "setting": "Rhesus D antigen [5]", "result": "binds"}]}
{"binder": "Fab clone LD1-40 (Fab, V domains shown, human soluble Fab from pComb3 in E. coli) VH: QVKLLESGGGVVQPGRSLRLSCIASGFTLRNYAMHWVRQAPGKGLEWVAGIWFDGSNKNYADSVKGRFTISRDNSKNTLYLQLNSLRDEDTAVYYCARERAARGISRFYYYMDVWGKGTTVTVSP VL: VMTQSPSSLSASVGDRVTITCRASQSIRSHLNWYQQKPGKAPKLLIYGASTLQSGVPSRFSGSGSGAVFTLTIASLQPEDFATYYCQESYSNPLITFGQGTRLETK", "values": [{"measurement": "binding result", "setting": "Rhesus D antigen [5]", "result": "binds"}]}
{"binder": "Fab clone LD1-110 (Fab, V domains shown, human soluble Fab from pComb3 in E. coli) VH: QVKLLESGGGVVQPGRSLRLSCIASGFTLRNYAMHWVRQAPGKGLEWVAGIWFDGSNKNYADSVKGRFTISRDNSKNTLFLHMNSLRAEDTATYYCARERAIRGISRYNYYMDVWGKGTTVTVSS VL: VMTQSPSSLSASVGDRVTITCRASQSIRSSLNWYQQKPGKAPKVLIYAASSLQSGVPSRFSGRGSGTDFTLTISSLQPEDFATYYCQQSSSSSWTFGQGTKVEIK", "values": [{"measurement": "binding result", "setting": "Rhesus D antigen [5]", "result": "binds"}]}
